{"source": "patent US20190062448A1", "about": "“ANTI-CD39 ANTIBODIES, COMPOSITIONS COMPRISING ANTI-CD39 ANTIBODIES AND METHODS OF USING ANTI-CD39 ANTIBODIES” (Tizona Therapeutics, priority 2017, published 2019)", "key": {"hCD39-ECD": {"target": "T1, hCD39-ECD (Homo sapiens, UniProt P49961)", "T1 sequence (P49961 38-478 limits assumed)": "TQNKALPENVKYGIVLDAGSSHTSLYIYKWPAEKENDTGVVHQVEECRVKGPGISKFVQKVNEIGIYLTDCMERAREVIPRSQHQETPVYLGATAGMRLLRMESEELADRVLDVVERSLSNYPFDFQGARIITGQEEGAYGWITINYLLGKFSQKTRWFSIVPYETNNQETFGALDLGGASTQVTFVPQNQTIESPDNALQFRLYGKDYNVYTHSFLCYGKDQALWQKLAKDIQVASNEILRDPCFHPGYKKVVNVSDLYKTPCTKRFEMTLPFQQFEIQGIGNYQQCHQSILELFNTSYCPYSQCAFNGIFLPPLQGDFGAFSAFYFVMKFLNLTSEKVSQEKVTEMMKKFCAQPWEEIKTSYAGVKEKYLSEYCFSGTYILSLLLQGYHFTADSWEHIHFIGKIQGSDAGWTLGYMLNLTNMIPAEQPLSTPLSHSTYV", "assay": "Epitope binning / competition for hCD39-ECD binding by Bio-Layer Interferometry", "source_text": "A1 antibody was immobilized onto an Anti-Mouse IgG Fc Capture (AMC) biosensor (ForteBio). Association of hCD39-ECD was then monitored for 180 seconds via Bio-Layer Interferometry (BLI) using the Octet system (ForteBio), at which point the biosensor was dipped into competitor antibody and monitored for another 180 seconds.\nThe methods are the same as set forth above except that instead of A1, the representative antibody was immobilized using anti-human IgG Fc Capture (AHC) biosensor.\nAlso, an 18 hour incubation was used with the antibody or isotype control. Finally, an additional 30 second baseline dip in buffer between antigen capture and dipping into a second competitor antibody for 300 seconds was used."}, "[1]": {"target": "T2, human-mouse CD39 chimeras (Homo sapiens, UniProt P49961, D150A/E143Q/E153S/L144S/N158S/R147E/R154T/S157K/V151A)", "T2 construct": "expressed in transfected cells; host or cells: CHO cells", "T2 sequence (P49961 1-510 E143Q/L144S/R147E/D150A/V151A/E153S/R154T/S157K/N158S)": "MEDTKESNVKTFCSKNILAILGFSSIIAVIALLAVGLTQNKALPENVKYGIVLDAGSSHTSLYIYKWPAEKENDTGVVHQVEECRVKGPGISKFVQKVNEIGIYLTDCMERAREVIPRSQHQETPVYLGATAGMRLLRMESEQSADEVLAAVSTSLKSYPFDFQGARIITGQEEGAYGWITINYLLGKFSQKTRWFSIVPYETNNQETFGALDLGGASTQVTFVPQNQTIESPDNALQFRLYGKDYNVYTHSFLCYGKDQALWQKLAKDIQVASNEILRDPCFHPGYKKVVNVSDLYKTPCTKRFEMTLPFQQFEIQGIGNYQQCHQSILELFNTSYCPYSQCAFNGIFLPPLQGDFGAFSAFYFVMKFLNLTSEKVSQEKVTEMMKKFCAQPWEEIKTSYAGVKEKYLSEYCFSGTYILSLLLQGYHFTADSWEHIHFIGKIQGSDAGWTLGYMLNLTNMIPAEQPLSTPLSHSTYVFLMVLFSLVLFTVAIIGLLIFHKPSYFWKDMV", "assay": "Binding to human-mouse CD39 chimeras and point mutants expressed in CHO cells (FACS)", "conditions": "15 μg/ml antibody", "procedure": "(§1) Chimeras were generated by replacing human CD39 with mouse CD39 sequence in mammalian expression vectors. The chimeras were expressed in CHO cells and the ability of anti-human CD39 antibodies to bind the chimeras tested via FACS. In brief, cells were washed and blocked in FACS buffer (PBS/2% FBS) for 30 min on ice. They were then incubated with 15 μg/ml anti-human CD39 antibodies diluted in FACS buffer×1 h on ice. After 2 washes, cells were incubated with fluorescently labeled anti-human Fc antibodies, anti-mouse Fc antibodies, or anti-mCD39 antibody (R&D Systems 495826) diluted in FACS buffer per manufacturers' instructions×30 min on ice. After 2 washes, cells were resuspended in FACS buffer and analyzed on BD Fortessa. Data was processed with FlowJo. Positive binding was scored as “yes” and lack of binding was scored as “NO” and examples of FACS plots used to generate this table are in FIGS. 14.F and 14.G.\n(§2) Chimeras were generated by mutagenesis of Chimera #2 or WT hCD39 expression vectors. Residues for mutagenesis were chosen based on divergence between human and mouse CD39. The chimeras were expressed in CHO cells and the ability of anti-human CD39 antibodies to bind the chimeras tested via FACS, as described in FIG. 14E. Table 2. Positive binding was scored as “Yes” and lack of binding was scored as “No” and examples of FACS plots used to generate this table are in FIGS. 14.F and 14.G."}, "[2]": {"target": "T3, human-mouse CD39 chimeras (Homo sapiens, UniProt P49961, E276G/I277V/N275G)", "T3 construct": "expressed in transfected cells; host or cells: CHO cells", "T3 sequence (P49961 1-510 N275G/E276G/I277V)": "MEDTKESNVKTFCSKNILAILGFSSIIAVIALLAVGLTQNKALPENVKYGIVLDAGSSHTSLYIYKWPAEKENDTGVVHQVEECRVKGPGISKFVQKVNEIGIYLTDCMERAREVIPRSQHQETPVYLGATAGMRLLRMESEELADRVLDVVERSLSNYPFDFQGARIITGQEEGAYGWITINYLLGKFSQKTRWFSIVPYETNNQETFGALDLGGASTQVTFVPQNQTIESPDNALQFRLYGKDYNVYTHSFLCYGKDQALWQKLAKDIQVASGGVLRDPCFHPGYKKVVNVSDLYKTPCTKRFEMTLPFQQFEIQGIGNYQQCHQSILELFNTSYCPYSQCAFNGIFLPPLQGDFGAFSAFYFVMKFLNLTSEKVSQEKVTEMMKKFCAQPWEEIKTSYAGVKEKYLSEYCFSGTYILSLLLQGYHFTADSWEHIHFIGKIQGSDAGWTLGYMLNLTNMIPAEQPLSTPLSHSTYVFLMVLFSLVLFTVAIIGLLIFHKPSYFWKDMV", "assay": "Binding to human-mouse CD39 chimeras and point mutants expressed in CHO cells (FACS)", "conditions": "15 μg/ml antibody", "procedure": "as §1, §2"}, "[3]": {"tested_on": "human-mouse CD39 chimeras", "assay": "Binding to human-mouse CD39 chimeras and point mutants expressed in CHO cells (FACS)", "procedure": "as §1, §2"}, "[4]": {"tested_on": "CD4^+ and CD8^+ T cells in stimulated PBMCs", "assay": "Proliferation of anti-CD3+anti-CD28 stimulated T cells (Cell Trace Violet)", "assay_type": "cell-based, human", "conditions": "50 μM ATP; 96 hours; vs isotype control", "procedure": "Proliferation of CD4^+ and CD8^+ T cells was measured by Cell Trace Violet by flow cytometry."}, "stimulated human PBMCs": {"tested_on": "stimulated human PBMCs", "assay": "Cytokine secretion by anti-CD3+anti-CD28 stimulated PBMCs (Meso Scale Discovery)", "assay_type": "cell-based", "conditions": "96 hours", "procedure": "Supernatants were harvested after 96 hours and cytokines were measured using a Meso Scale Discovery human cytokine kit.\nSupernatants were harvested after 96 hours and analyzed by Meso Scale Discovery human cytokine kit."}, "[5]": {"tested_on": "CD39^+CD73^+SK-MEL-28 cells", "assay": "Extracellular ATP accumulation in SK-MEL-28 supernatants (AmpGlo Kit)", "assay_type": "cell-based, human", "conditions": "1 hour treatment; 50 μM ATP for 15 min", "procedure": "(§3) The supernatants were analyzed for ATP levels using AmpGlo Kit (A) and for adenosine levels using LC/MS analysis (B). % Adenosine levels were normalized to isotype control (100%) and SK-MEL-28 CD39 KO cells (0%)."}, "[6]": {"tested_on": "CD39^+CD73^+SK-MEL-28 cells", "assay": "Adenosine generation by SK-MEL-28 cells (LC/MS)", "assay_type": "cell-based, human", "conditions": "normalized to isotype control (100%) and CD39 KO cells (0%)", "procedure": "as §3"}}, "note": "Entries after “also recorded” stand apart in the source; their conditions may differ.", "data": [{"molecule": "31895: inhibitory anti-CD39 antibody, contacts E143-N158 incl. D150 and E153 (antibody, V domains shown, Synthetic VH, 31895; Synthetic VL, 31895, D150 and E153) VH: QVQLVQSGAEVKKPGASVKVSCKASGYTFKSYEMHWVRQAPGQGLEWMGRINPSVGSTWYAQKFQGRVTMTRDTSTSTVYMELSSLRSEDTAVYYCARGKREGGTEYLRKWGQGTLVTVSS VL: EIVLTQSPGTLSLSPGERATLSCRASQSVASSYLAWYQQKPGQAPRLLIYGASNRHTGIPDRFSGSGSGTDFTLTISRLEPEDFAVYYCQQYHNAITFGGGTKVEIK", "values": [{"measurement": "competition / binning with other anti-CD39 antibody bin groups for ECD binding", "setting": "hCD39-ECD", "value": "do not bin with anti-CD39 antibody bin groups represented by antibodies A1, 27536, or 27549"}, {"measurement": "binding to Chimera #2 (human E143-N158 replaced by mouse sequence)", "setting": "[1]", "value": "able to bind all chimeras but Chimera #2; also recorded: inability to recognize Chimera #2"}, {"measurement": "binding to Chimera #4", "setting": "[2]", "value": "able to bind all chimeras but Chimera #2"}, {"measurement": "binding to Chimera #9,10 (single residues of Chimera #2 reverted to human)", "setting": "[3]", "value": "restore the ability"}, {"measurement": "binding to Chimeras #13,14 (two human residues co-mutated to mouse)", "setting": "[3]", "value": "did not impair binding"}, {"measurement": "% CD4^+ T cell proliferation", "setting": "[4]", "value": "increases proliferation"}, {"measurement": "% CD8^+ T cell proliferation", "setting": "[4]", "value": "increases proliferation"}, {"measurement": "secretion of INF-γ, TNF-α and IL-2", "setting": "stimulated human PBMCs; absence of exogenous ATP", "value": "increases cytokine secretion"}, {"measurement": "release of INF-γ, TNF-α, IL-2 and IL-1β", "setting": "stimulated human PBMCs; fixed concentration of 50 μg/ml, presence of ATP, compared to HAO-391 and HAO mAb4", "value": "increased cytokine release by activated PBMCs to a higher degree"}, {"measurement": "secretion of INF-γ, TNF-α and IL-2", "setting": "stimulated human PBMCs; presence of exogenous ATP (50 μM)", "value": "increases cytokine secretion"}, {"measurement": "extracellular ATP accumulation", "setting": "[5]", "value": "Increase Extracellular ATP Accumulation"}, {"measurement": "adenosine generation (% of adenosine levels)", "setting": "[6]", "value": "Reduces Adenosine Generation"}]}]}
